Measurements reported in article PMC7714071, “Interaction of amyloid beta with humanin and acetylcholinesterase is modulated by ATP” (FEBS Open Bio, 2020).

Columns and labels:
[1] = system: Aβ from H1299 cell-conditioned media; assay: ELISA, HN (endogenous and exogenously added) and AChE bound to Aβ from H1299 media on 82E1 antibody; type: binding, human; details: H1299 cell-conditioned media, 82E1; Fig. 6
Experimental: Human NSCLC cell lines, A549 (ATCC CCL‐185) and H1299 (ATCC CRL‐5803), were purchased from the American Type Culture Collection (ATCC, Manassas, VA, USA). Cells were seeded as we reported earlier in 5 mL HyClone Dulbecco's modified Eagle's medium/nutrient mixture F‐12 (DMEM/F12) (GE Healthcare Life Sciences, Pittsburgh, PA, USA), supplemented with 10% Fetalgro bovine growth serum (FBS; RMBIO, Missoula, MT, USA), 50 U·mL^−1 penicillin, and […] streptomycin (Invitrogen, Life Technologies, Carlsbad, CA, USA) in 25‐cm^2 tissue culture flasks, and allowed to grow overnight in an incubator at 37 °C, 95% humidity, and 5% CO2. The cells were counted after trypan blue staining, with a hemocytometer.
ELISAs were carried out as we previously reported. […] TBST was then used to wash the wells 4× before proceeding in one of two ways: (a) biotinylated samples were analyzed by adding 100 µL streptavidin–HRP conjugate in TBST (1 : 2500 dilution) to the samples followed by incubation for 3 h at RT on a shaker, or (b) samples without biotin were analyzed by adding 100 µL TBST containing the primary antibody as per the manufacturer's recommendation, incubating for 3 h at RT on a shaker, followed by washing the wells 4× with TBST. […] The reaction was stopped with 100 µL 2 M H2SO4 after incubating at RT for 0.5–15 min, resulting in a yellow color change, measured by absorbance at 450 nm. […]

Aβ42 = details: HN and AChE compared; cited from earlier work
Text: Humanin has been previously reported to bind amino acid residues 17–28 of Aβ (Fig. 1). AChE is also known to bind Aβ (1–16) and the Aβ (12–28) region (Fig. 1). Since the binding sites of AChE and HN on Aβ are overlapping, we previously investigated whether HN and AChE can simultaneously bind Aβ [79].

B1: acetylcholinesterase (protein)
chain: EGREDAELLVTVRGGRLRGIRLKTPGGPVSAFLGIPFAEPPMGPRRFLPPEPKQPWSGVVDATTFQSVCYQYVDTLYPGFEGTEMWNPNRELSEDCLYLNVWTPYPRPTSPTPVLVWIYGGGFYSGASSLDVYDGRFLVQAERTVLVSMNYRVGAFGFLALPGSREAPGNVGLLDQRLALQWVQENVAAFGGDPTSVTLFGESAGAASVGMHLLSPPSRGLFHRAVLQSGAPNGPWATVGMGEARRRATQLAHLVGCPPGGTGGNDTELVACLRTRPAQVLVNHEWHVLPQESVFRFSFVPVVDGDFLSDTPEALINAGDFHGLQVLVGVVKDEGSYFLVYGAPGFSKDNESLISRAEFLAGVRVGVPQVSDLAAEAVVLHYTDWLHPEDPARLREALSDVVGDHNVVCPVAQLAGRLAAQGARVYAYVFEHRASTLSWPLWMGVPHGYEIEFIFGIPLDPSRNYTAEEKIFAQRLMRYWANFARTGDPNEPRDPKAPQWPPYTAGAQQYVSLDLRPLEVRRGLRAQACAFWNRFLPKLLSATDTLDEAERQWKAEFHRWSSYMVHWKNQFDHYSKQDRCSDL
- AChE bound to Aβ [1]: barely detectable levels
- affinity for Aβ42 (Aβ42): comparable affinities
